Measurements reported in the supplement of paper PMC12636428.

tested on: Saccharomyces cerevisiae; assay: transcriptional activation domain activity (GFP:mCherry ratio, weighted mean of sorted bins, harmonized to initial dataset scale) (arbitrary fluorescence ratio units); higher = stronger transcriptional activation; details: beta-estradiol 1 µM; induction time 4 h
Method in brief: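 Protein tiles carrying barcodes and fused to an estradiol-inducible synthetic transcription factor were placed at the URA3 locus of yeast diploids with a GFP reporter. Following 4 hours at 30 °C in SC with 1 uM beta-estradiol, cells were sorted into 8 GFP:mCherry bins, barcodes were sequenced, and tiles with fewer than 50 reads were discarded. Activation activity is given as the read-weighted mean of bin median fluorescence, averaged across barcodes and linearly mapped to the initial dataset scale.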

Compared with “TLAGMIRENDEEQKSRGITRIKELEIKCLIEGAYGINRPMHLFETAVVIAGGV”, “CWILGFISVFTFAYLVLTVLPNLYLNCPYSTPLSELSWRLSQHLLLLILHLIR” is higher in “transcriptional activation domain activity” value: 54500 for the first, 69500 for the second.

Going from “RQLFIRGRMQTIMLDCFLELCYRGACSLSSFEHPINWFEAPSDCLIWIRRMMY” to “LSAFCCTLVDRYLLSTEYSHFSICLVRSVLNWVARGISSLLLLHFFLLLVMYE”, the “transcriptional activation domain activity” value rises from 36600 to 50600.

Compared with “PFSNFFSNLFLYLFFDLFSNFFFIFSLPFILFHIISSIFNLNFNLLLLLIHLF”, “GKRGSRGRGRGKGGKKKGKGREGAEEGEGGSRGRGEGGGKTGEGGRESRRRGE” is lower in “transcriptional activation domain activity” value: 65800 for the first, 37600 for the second.

First: VEAAEPEIEVPNKDSRPSKRGRKEKVIEEEDSAPVDKPVSKGKKAAPVAKTAL
Second: VHEQLEVALRRWRISSIMEGTRVRDVLIRLPLAHSFASLSSKVNILLHEMLFE
The “transcriptional activation domain activity” value of the first is lower: 15300 for the first, 45700 for the second.

First: RGGKGVEEERGEGGGRGEGERGQGGRGRGGRGAGARGRGGTGEEGEGAGGKQE
Second: SWFIYSYDKEWIFLWHIPFPYPPIRTPSIPWVLYGLSVRFWSFISLLICNFFC
The “transcriptional activation domain activity” value of the first is lower: 51400 for the first, 63300 for the second.

Going from “RAGASPEEASAQSGGSRSKEAEESGSSPTGGEVGKSGGKNSSSSKSVEEKSKD” to “HHLHAFLLGLGFLFSLLICVSSSCLVSSSLLRLLLLLPRFARWIRFLLYILLL”, the “transcriptional activation domain activity” value rises from 29700 to 64400.

Going from “RWCARCMLLTATIHMGYFFSAWAPYDYIGYQLKNNKIVWKGLAAWCTLVWIVF” to “GRSESQSANNNGNNARGGKTGGGEAAAGGKTSASRGPRGGRGAKNKGSGGSKG”, the “transcriptional activation domain activity” value falls from 47700 to 28700.

Going from “AAAPDVENEPAGRRKAAAAGVEQGGGHPHMLKGVCGNAGWGDAQAAAGKACKG” to “RKPETAGEGSGAEGASGGENHRRGSTRGRGRGRGRGGRSSRGGRSRKDGAGAE”, the “transcriptional activation domain activity” value rises from 26900 to 33500.

Going from “AILKCIACHNGAMDSVRLLSVLTVPSGPALAHVHLCLLRYLKNRVISEQFGPS” to “LHQRVHEQGLYDCHYSNYFIDLLRYLVLLGLFVVSFYKEYYLVSSCFLGCFWH”, the “transcriptional activation domain activity” value rises from 21100 to 57400.

Going from “AQRHLLKCIVFRTEKSLINFVPELTEAKARDIRMLHFYPPALQRAALILLVKT” to “MQADNLPFMCVCPYFLSTYSSSLSLVFPLFFFLCLFLLFPFFAFLLLLSLFSC”, the “transcriptional activation domain activity” value falls from 47500 to 44500.

Compared with “SERSERRADERSSRNGPSEAERGSERERGGREKRGGDRESSRRERERGGEARE”, “LSTLFYIFCRYALVANFLYSLSIIKGSHIINCDIGYMICGVLSIFGHIGIIAV” is higher in “transcriptional activation domain activity” value: 17200 for the first, 49800 for the second.

Going from “GRILIMLFLWLILRLQIRIVVREVLSRPCCCPFSTITSCAALEQYQRVYDQTA” to “VHPIVCLVVCLLGHIWSFHVYYCLLKIGLLFSLFPLVRLARCAIFYRRCFSYF”, the “transcriptional activation domain activity” value rises from 36700 to 40200.

First: LLYHYPMCSVCVLCCVLFFSHLFSIFHVLSVLCCTFFWQCLSFFHYLIPLFLY
Second: VKHTYLMVTILLLFIFITMCCIMDNVRCIVALNNPGLDLGPPNSVIGILINAC
The “transcriptional activation domain activity” value of the first is higher: 62300 for the first, 18100 for the second.

Going from “GSYTSAARGGKAVQEAIRAMIERKGLELRQKQRKLRQDVVIVMHHATALPGTS” to “VPLEEYIPSDIDGVGRVTDKSSLVYDWPFDESIERNFSTTATAATGESKFDIN”, the “transcriptional activation domain activity” value rises from 56300 to 68100.

First: SSDYSIAQFRFLLKLLLVHGRWNYVRICKYILGTFYKEFMFYLTQLIYQRNTM
Second: MKFVFVPFAVSPPKPFFLLLFLLLFFTSTFCAFSISPFSLFCSSLFYCSRFLL
The “transcriptional activation domain activity” value of the first is lower: 39600 for the first, 52400 for the second.

Going from “SLVLQTVFLYMVERVDICIDYLKVHRRFREAEVYLLRFQQCMTRAMTLIKMYF” to “NMGEQQKFTSPQHIVHKAKFLSNAADSEYSILSNIIYQDTLSNKIPIDILYSN”, the “transcriptional activation domain activity” value rises from 75700 to 76900.

Compared with “KKGREDMGNERKGNDMEGREGEKRGRKGKREGGGKGGKGGEKQREGRTGERGR”, “RDARARRTRERRRGRAERAPEEGRREERRKRGRGARGGRARGGAAGRGGRGEG” is higher in “transcriptional activation domain activity” value: 21800 for the first, 32200 for the second.

Compared with “VVLWHIVISLRFWFNFVSVVPALRWVYLSIYEIKVDYKNLIEYTLPQLCSLFI”, “NKVLRWALDSHIKKWSLDHLRTIAHLIQVVELHHFWSEKENAVALIRVIFKSL” is higher in “transcriptional activation domain activity” value: 54600 for the first, 59700 for the second.

Going from “LVGDANGCRVLPAFQLWPLLSTFNLLYSISSTSWLLYWVFTSLCYPAIFLVCL” to “EKEVEGNKNNEEDKPEENEEKDGEDKDAKEKGEEDEDEEDRDQDQEDEDQEGR”, the “transcriptional activation domain activity” value falls from 55700 to 11800.

Going from “MQSGHLFRLFGIAKTVLFFFSSVSCSLLHFLFSSFPFPIFPFVLSICYVFHFF” to “KRRGDQGKEQDRKGGEGGEEERGNGARGGGSARKEGDKGGEQKEGGRQRERAG”, the “transcriptional activation domain activity” value falls from 46600 to 41700.

Going from “HFAFESLAQTKHLERICMLSIRFVYVYAPHGEPIQLVVGFLICLLSNSPVSNG” to “VIITLICRYEMHSTRLRLRGMSILSFLVNYTGRSMCNIKTTGFLDMIFALRQV”, the “transcriptional activation domain activity” value falls from 55200 to 47100.

Compared with “AEEEEDAEDEVVEEKIPAKRGRKPRGEKIEEVSSPAAAAPVRGKKAAAAAAKP”, “VLRMFFVSQANTFVILSLLGLCLPSRALPAAFGFSPSYAPLLIRLYLAQTLFT” is higher in “transcriptional activation domain activity” value: 24200 for the first, 25800 for the second.

Going from “ADANGGGLKAGGRVTIAIVRQAILEATSSPLQVYLKTCPLASKVFLVALLVRC” to “ACIVFWMGSWVYKYQLMFVFVSKVESGGRVWNVVINRLLFCVVLMQCLMILTI”, the “transcriptional activation domain activity” value rises from 58100 to 73700.

Compared with “ALHLVWSGSTIYVKPLPACLVDFDFFMRFISPFPHIYEDACGFLLTYARLIVH”, “KEVKEGEEGEKPKRGRKRKEAPAENGEKEPAAKKAKLASKAAPGSKPASKAAS” is lower in “transcriptional activation domain activity” value: 89800 for the first, 28300 for the second.

Going from “MVDSRMLGETETGLFLSFIFFRIIFILVLPYLASCSKYVHLLFLYCFLLLRFF” to “MVYQGGVTFLCNFYILFPFFPFFFCFCKVSFLFCFCIFLFFCSWDGGLFLFLF”, the “transcriptional activation domain activity” value rises from 54600 to 62700.

First: MTLLVGYLGVFFLLFSSPSLLEFFFFVTYRVFVVFFFSSSFFFLGYPVFFFFF
Second: GAEYICQYKGGLIGKHFKSFAQIMPYLIYDLVPPSVLDAWTTIGSPVVLLWHT
The “transcriptional activation domain activity” value of the first is lower: 36600 for the first, 46000 for the second.

Going from “GHKGRHLAEAAGLALGAKKLMKHRSHSRPGRSPSPEGHHRARHLAEAGIAAAG” to “NLLMRPRYPPNQFISKISLRLILTDLPYMIFVFSGIFIMLGLFYPIFYLQLYA”, the “transcriptional activation domain activity” value rises from 43900 to 50400.

Going from “EDDDERRRKESSSSSRRKDRDRDDDGHERKDRKDRKHGSHRDRETDREREKRK” to “MIPLQVLSLIDAKNLILLLTKFFSCVALSSCLYWDSCYNLIHGYLVLYKIIYT”, the “transcriptional activation domain activity” value rises from 33000 to 59400.

Going from “EGSERESKGSEREGEGSEREGKRNEREGKRGERGGERVGERGSEKVGERGSEK” to “MSRVLPEKLPLHLQAACLPQRDLLTALPVVALRCYTDGPQLLRGLVCCLCDMW”, the “transcriptional activation domain activity” value rises from 22700 to 61600.

First: MHITCPRLWGHCSWCVVLPFIFHTFLYCIPTFCCFLVHISAILFIGFSFLGSL
Second: KRSKSPDSRHSSSRKRSRSRERKHKSSRKRSKSREGKIKKSKSEKHRSHKHKR
The “transcriptional activation domain activity” value of the first is higher: 55600 for the first, 46300 for the second.

Compared with “YECALGIYSCVSFFVGVFYYIFIIFLSPIIFILLIILPLRISFVLCMAILLFG”, “RAKKDAKESTTSKDTGTGKGAGSSREGRGSRNTSSRGRGSASGRQSTRKSRAR” is higher in “transcriptional activation domain activity” value: 28600 for the first, 29300 for the second.

Going from “TSSSTAAPAVKRDEKPVKEKKPPAPQAPLEPGAVPEKRKRGRPRKVVSPPVPV” to “ALEKDKKEEPKEDSKKDESKTEKKEEEDNKDENGRPKLVVKRLRKETTAAAAV”, the “transcriptional activation domain activity” value falls from 49500 to 20000.

First: VYKRKILVLIYKIAHLTDLYLEVANGGPKLRLHLSALSFHTCAWKSKGLSIPE
Second: RTMGKQDPYCAMRLGKEAKKTNTDRRGGQTPRWDQELRFTVHDSPDYYKLKCS
The “transcriptional activation domain activity” value of the first is lower: 35900 for the first, 44300 for the second.

Going from “NQFSKPQVWSVGVFWWSIWLSCVWLGWWLCRLASFLAPRVLKFTIAIWMLVIY” to “MAWAIQGRLFSFNCSCSHFIFWPLFFFFSLPWRAWSSIGNNSRFSRLFFFFFL”, the “transcriptional activation domain activity” value rises from 40800 to 60900.

Going from “IRFTLPTLVFAAVQLARRFKLLEAGGWSEWARKMCSLYKFVHQIIGLLYTRVE” to “RWSYLRTSEMILTFFYKNIMWTLVLFWYQLFCGFSGTMMFDYSYITLYNLVFT”, the “transcriptional activation domain activity” value rises from 62600 to 63200.

Compared with “LLRRIMRYRNMHLLLSYAVELGFLRAIILCGRPSLSKVHHHVRFFLRDLLPAS”, “EFNDIERSVYEIVRKRFIARINSFAAAGQLEKSYTNIFVMLLRLRQLTGHILT” is higher in “transcriptional activation domain activity” value: 38800 for the first, 48200 for the second.

Going from “QWCIYAMLAYVIGWTISFFFSHLFTCYPITVFIEPYYGNKCVKTVPMFIALLY” to “AQEEFRTYIQEHLVAEQVIAADESSKDDHTIIQHFGRAPHVLWLLLVLMAIWL”, the “transcriptional activation domain activity” value rises from 67700 to 78200.

Going from “MPGVTGHHLTSWYWLSFIFIFLFYFALLVVFIWVIFSYLFTHLIRFGHAVVVS” to “SADIERRHHKKNHKGGANAGNAAGNNNNAGGNAGNATAAAANRRDVVEDLQSR”, the “transcriptional activation domain activity” value falls from 29000 to 13900.

First: RRRRAKSRDPERVRERSERRASRSPEKKDKSARSKSRLGRLAAGAAAAGAAAI
Second: IYVELYFILSSIWFSRIYYMFGFLFLCYGLMIMTCATVTILMVYFLLCAENYN
The “transcriptional activation domain activity” value of the first is lower: 42800 for the first, 58300 for the second.

Going from “EDRHSSKRRRERSRSPVRDTRRRSRSPAARGKNDEDRRDRRRSSSRERDRRRG” to “TVQLLKLFCAFSSLSSILIALLLQTPYYLATTWGTLLRRYIIFFSFPLINSIS”, the “transcriptional activation domain activity” value rises from 32600 to 54200.

Compared with “SPENVSLAAVTGVYGLGLNPWPTFDYNMLGLDPLVTPFFTTFNFFLGTLFTLP”, “RPLSEASRDLALPSVTRVWCDEKDNIFYMQDVNFVTDITKVLLVSVLSTVARC” is lower in “transcriptional activation domain activity” value: 74100 for the first, 47600 for the second.

For “SRREDGVKVEDADDGGVSLEKGVEDLNIDNNNGKKEKGGVFVHCAAGKSRSVS”, the “transcriptional activation domain activity” value was 43100.
